Experimental data taken from paper PMC5861430 (Nucleic Acids Research, 2018).

T1: GST-APE2 (Xenopus laevis, UniProt Q6DDT4 1-517)
T1 sequence (looked up): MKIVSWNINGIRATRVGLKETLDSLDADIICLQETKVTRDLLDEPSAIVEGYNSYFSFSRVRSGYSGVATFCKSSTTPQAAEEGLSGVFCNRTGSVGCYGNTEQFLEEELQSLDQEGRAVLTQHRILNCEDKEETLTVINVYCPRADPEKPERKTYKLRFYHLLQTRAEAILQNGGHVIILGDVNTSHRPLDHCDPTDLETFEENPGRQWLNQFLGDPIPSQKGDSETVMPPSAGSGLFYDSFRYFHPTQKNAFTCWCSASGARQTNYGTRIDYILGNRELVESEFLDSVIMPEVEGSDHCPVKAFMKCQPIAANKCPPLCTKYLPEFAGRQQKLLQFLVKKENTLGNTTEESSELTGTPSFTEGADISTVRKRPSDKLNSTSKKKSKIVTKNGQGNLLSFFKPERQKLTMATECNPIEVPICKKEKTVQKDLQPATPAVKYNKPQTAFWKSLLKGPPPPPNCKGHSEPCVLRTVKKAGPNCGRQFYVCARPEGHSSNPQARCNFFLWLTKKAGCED

B1: WT His-tagged PCNA (natural protein, Xenopus laevis, UniProt P18248 1-261, looked up)
chain: MFEARLVQGSILKKVLEALKDLIDEACWDITSSGISLQSMDSSHVSLVQLTLRSDGFDTYRCDRNQSIGVKMSSMSKILKCAASDDIITLRAEDNADTVTMVFESPNQEKVSDYEMKLMDLDVEQLGIPEQEYSCVIKMPSGEFARICRDLSQIGDAVVISCAKDGVKFSASGELGTGNVKLSQTSNVDKEEEAVTIEMNEPVQLTFALRYLNFFTKATPLSPTVILSMSADIPLVVEYKIADMEHVKYYLAPKIEDEEAS

Columns and labels:
Experiment in all cases: pull-down
GST-APE2 = target: T1, GST-APE2
WT His-tagged PCNA = target: B1
[1] = target: PK PCNA (P253A-K254A PCNA) (Xenopus laevis, UniProt P18248 1-261, P253A | K254A)

| binding result (GST-APE2) | binding result (WT His-tagged PCNA) | binding result [1] | Binder |
| --- | --- | --- | --- |
| binds |  |  | B1 |
|  | binds | binds | GST-APE2-ZF (domain or fragment, Xenopus laevis, UniProt Q6DDT4 456-517, looked up) GPPPPPNCKGHSEPCVLRTVKKAGPNCGRQFYVCARPEGHSSNPQARCNFFLWLTKKAGCED |
